Numbered stars: 1 amine (or outer) side, 2 acyl side, 3 side chain; on linkers, the order of the positions; unused ones are H or OH. Bridge positions count the residues as written; N and C are the ends. Side chains are listed from the residue outwards. Ends that are not written are not given here. * marks the point of attachment. C20 diacid = O=C(O)CCCCCCCCCCCCCCCCCCC(=O)*; C18 diacid = O=C(O)CCCCCCCCCCCCCCCCC(=O)*; γGlu = O=C(O)[C@H](CCC(=O)[*:2])N[*:1]
T1: human amylin 3(a) receptor (human calcitonin receptor co-expressed with RAMP-3) (human, UniProt P30988 25-474; O60896 24-148, limits assumed)
T1 sequence (looked up) 1: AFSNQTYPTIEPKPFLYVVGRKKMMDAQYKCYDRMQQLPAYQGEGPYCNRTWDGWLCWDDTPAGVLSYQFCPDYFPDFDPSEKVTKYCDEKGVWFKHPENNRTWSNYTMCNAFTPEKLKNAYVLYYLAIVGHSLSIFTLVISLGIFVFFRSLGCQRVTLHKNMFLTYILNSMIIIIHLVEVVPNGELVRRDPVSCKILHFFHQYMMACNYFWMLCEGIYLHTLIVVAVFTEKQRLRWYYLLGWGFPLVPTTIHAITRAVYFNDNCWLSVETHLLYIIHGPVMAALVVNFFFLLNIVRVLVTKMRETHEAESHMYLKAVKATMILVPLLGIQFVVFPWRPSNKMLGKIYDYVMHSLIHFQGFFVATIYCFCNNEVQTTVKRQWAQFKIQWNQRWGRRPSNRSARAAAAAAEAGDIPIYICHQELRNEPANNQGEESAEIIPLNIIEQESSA
T1 sequence (looked up) 2: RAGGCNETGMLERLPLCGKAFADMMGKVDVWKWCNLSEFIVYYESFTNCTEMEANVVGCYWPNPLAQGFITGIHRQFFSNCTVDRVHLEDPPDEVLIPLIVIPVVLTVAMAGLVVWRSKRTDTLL

T2: human calcitonin receptor (human, UniProt P30988 25-474)
T2 sequence (looked up): T1 sequence (looked up) 1

B1: N^ε1-[(4S)-4-carboxy-4-(17-carboxyheptadecanoylamino)butanoyl]-[Arg17,Pro21,Pro27,His34]-h-amylin (peptide)
peptide: K([γGlu-C18 diacid])CNTATCATQRLANFLRHSSPNFGAIPSSTNVGHNTY-NH2
modifications: disulfide 2-7; N-terminus assumed
SMILES: CC[C@H](C)[C@H](NC(=O)[C@H](C)NC(=O)CNC(=O)[C@H](Cc1ccccc1)NC(=O)[C@H](CC(N)=O)NC(=O)[C@@H]1CCCN1C(=O)[C@H](CO)NC(=O)[C@H](CO)NC(=O)[C@H](Cc1c[nH]cn1)NC(=O)[C@H](CCCNC(=N)N)NC(=O)[C@H](CC(C)C)NC(=O)[C@H](Cc1ccccc1)NC(=O)[C@H](CC(N)=O)NC(=O)[C@H](C)NC(=O)[C@H](CC(C)C)NC(=O)[C@H](CCCNC(=N)N)NC(=O)[C@H](CCC(N)=O)NC(=O)[C@@H](NC(=O)[C@H](C)NC(=O)[C@@H]1CSSC[C@H](NC(=O)[C@@H](N)CCCCNC(=O)CC[C@H](NC(=O)CCCCCCCCCCCCCCCCC(=O)O)C(=O)O)C(=O)N[C@@H](CC(N)=O)C(=O)N[C@@H]([C@@H](C)O)C(=O)N[C@@H](C)C(=O)N[C@@H]([C@@H](C)O)C(=O)N1)[C@@H](C)O)C(=O)N1CCC[C@H]1C(=O)N[C@@H](CO)C(=O)N[C@@H](CO)C(=O)N[C@H](C(=O)N[C@@H](CC(N)=O)C(=O)N[C@H](C(=O)NCC(=O)N[C@@H](Cc1c[nH]cn1)C(=O)N[C@@H](CC(N)=O)C(=O)N[C@H](C(=O)N[C@@H](Cc1ccc(O)cc1)C(N)=O)[C@@H](C)O)C(C)C)[C@@H](C)O
B2: N^ε1-[(4S)-4-carboxy-4-(19-carboxynonadecanoylamino)butanoyl]-[Ala14,Arg17,Pro21,Pro27,His34]-h-amylin (peptide)
peptide: K([γGlu-C20 diacid])CNTATCATQRLAAFLRHSSPNFGAIPSSTNVGHNTY-NH2
modifications: disulfide 2-7; N-terminus assumed
SMILES: CC[C@H](C)[C@H](NC(=O)[C@H](C)NC(=O)CNC(=O)[C@H](Cc1ccccc1)NC(=O)[C@H](CC(N)=O)NC(=O)[C@@H]1CCCN1C(=O)[C@H](CO)NC(=O)[C@H](CO)NC(=O)[C@H](Cc1c[nH]cn1)NC(=O)[C@H](CCCNC(=N)N)NC(=O)[C@H](CC(C)C)NC(=O)[C@H](Cc1ccccc1)NC(=O)[C@H](C)NC(=O)[C@H](C)NC(=O)[C@H](CC(C)C)NC(=O)[C@H](CCCNC(=N)N)NC(=O)[C@H](CCC(N)=O)NC(=O)[C@@H](NC(=O)[C@H](C)NC(=O)[C@@H]1CSSC[C@H](NC(=O)[C@@H](N)CCCCNC(=O)CC[C@H](NC(=O)CCCCCCCCCCCCCCCCCCC(=O)O)C(=O)O)C(=O)N[C@@H](CC(N)=O)C(=O)N[C@@H]([C@@H](C)O)C(=O)N[C@@H](C)C(=O)N[C@@H]([C@@H](C)O)C(=O)N1)[C@@H](C)O)C(=O)N1CCC[C@H]1C(=O)N[C@@H](CO)C(=O)N[C@@H](CO)C(=O)N[C@H](C(=O)N[C@@H](CC(N)=O)C(=O)N[C@H](C(=O)NCC(=O)N[C@@H](Cc1c[nH]cn1)C(=O)N[C@@H](CC(N)=O)C(=O)N[C@H](C(=O)N[C@@H](Cc1ccc(O)cc1)C(N)=O)[C@@H](C)O)C(C)C)[C@@H](C)O
notes: also called compound 93
B3: N^ε1-[(4S)-4-carboxy-4-(19-carboxynonadecanoylamino)butanoyl]-[Arg17,Pro21,Pro27,Arg34]-h-amylin (peptide)
peptide: K([γGlu-C20 diacid])CNTATCATQRLANFLRHSSPNFGAIPSSTNVGRNTY-NH2
modifications: disulfide 2-7; N-terminus assumed
SMILES: CC[C@H](C)[C@H](NC(=O)[C@H](C)NC(=O)CNC(=O)[C@H](Cc1ccccc1)NC(=O)[C@H](CC(N)=O)NC(=O)[C@@H]1CCCN1C(=O)[C@H](CO)NC(=O)[C@H](CO)NC(=O)[C@H](Cc1c[nH]cn1)NC(=O)[C@H](CCCNC(=N)N)NC(=O)[C@H](CC(C)C)NC(=O)[C@H](Cc1ccccc1)NC(=O)[C@H](CC(N)=O)NC(=O)[C@H](C)NC(=O)[C@H](CC(C)C)NC(=O)[C@H](CCCNC(=N)N)NC(=O)[C@H](CCC(N)=O)NC(=O)[C@@H](NC(=O)[C@H](C)NC(=O)[C@@H]1CSSC[C@H](NC(=O)[C@@H](N)CCCCNC(=O)CC[C@H](NC(=O)CCCCCCCCCCCCCCCCCCC(=O)O)C(=O)O)C(=O)N[C@@H](CC(N)=O)C(=O)N[C@@H]([C@@H](C)O)C(=O)N[C@@H](C)C(=O)N[C@@H]([C@@H](C)O)C(=O)N1)[C@@H](C)O)C(=O)N1CCC[C@H]1C(=O)N[C@@H](CO)C(=O)N[C@@H](CO)C(=O)N[C@H](C(=O)N[C@@H](CC(N)=O)C(=O)N[C@H](C(=O)NCC(=O)N[C@@H](CCCNC(=N)N)C(=O)N[C@@H](CC(N)=O)C(=O)N[C@H](C(=O)N[C@@H](Cc1ccc(O)cc1)C(N)=O)[C@@H](C)O)C(C)C)[C@@H](C)O
notes: also called compound 79
B4: N^ε1-[(4S)-4-carboxy-4-(19-carboxynonadecanoylamino)butanoyl]-[Arg14,Arg17,Pro21,Pro27]-h-amylin (peptide)
peptide: K([γGlu-C20 diacid])CNTATCATQRLARFLRHSSPNFGAIPSSTNVGSNTY-NH2
modifications: disulfide 2-7; N-terminus assumed
SMILES: CC[C@H](C)[C@H](NC(=O)[C@H](C)NC(=O)CNC(=O)[C@H](Cc1ccccc1)NC(=O)[C@H](CC(N)=O)NC(=O)[C@@H]1CCCN1C(=O)[C@H](CO)NC(=O)[C@H](CO)NC(=O)[C@H](Cc1c[nH]cn1)NC(=O)[C@H](CCCNC(=N)N)NC(=O)[C@H](CC(C)C)NC(=O)[C@H](Cc1ccccc1)NC(=O)[C@H](CCCNC(=N)N)NC(=O)[C@H](C)NC(=O)[C@H](CC(C)C)NC(=O)[C@H](CCCNC(=N)N)NC(=O)[C@H](CCC(N)=O)NC(=O)[C@@H](NC(=O)[C@H](C)NC(=O)[C@@H]1CSSC[C@H](NC(=O)[C@@H](N)CCCCNC(=O)CC[C@H](NC(=O)CCCCCCCCCCCCCCCCCCC(=O)O)C(=O)O)C(=O)N[C@@H](CC(N)=O)C(=O)N[C@@H]([C@@H](C)O)C(=O)N[C@@H](C)C(=O)N[C@@H]([C@@H](C)O)C(=O)N1)[C@@H](C)O)C(=O)N1CCC[C@H]1C(=O)N[C@@H](CO)C(=O)N[C@@H](CO)C(=O)N[C@H](C(=O)N[C@@H](CC(N)=O)C(=O)N[C@H](C(=O)NCC(=O)N[C@@H](CO)C(=O)N[C@@H](CC(N)=O)C(=O)N[C@H](C(=O)N[C@@H](Cc1ccc(O)cc1)C(N)=O)[C@@H](C)O)C(C)C)[C@@H](C)O
notes: also called compound 83
B5: N^ε1-[(4S)-4-carboxy-4-(19-carboxynonadecanoylamino)butanoyl]-[Ala14,Arg17,Pro21,Pro27,Pro34]-h-amylin (peptide)
peptide: K([γGlu-C20 diacid])CNTATCATQRLAAFLRHSSPNFGAIPSSTNVGPNTY-NH2
modifications: disulfide 2-7; N-terminus assumed
SMILES: CC[C@H](C)[C@H](NC(=O)[C@H](C)NC(=O)CNC(=O)[C@H](Cc1ccccc1)NC(=O)[C@H](CC(N)=O)NC(=O)[C@@H]1CCCN1C(=O)[C@H](CO)NC(=O)[C@H](CO)NC(=O)[C@H](Cc1c[nH]cn1)NC(=O)[C@H](CCCNC(=N)N)NC(=O)[C@H](CC(C)C)NC(=O)[C@H](Cc1ccccc1)NC(=O)[C@H](C)NC(=O)[C@H](C)NC(=O)[C@H](CC(C)C)NC(=O)[C@H](CCCNC(=N)N)NC(=O)[C@H](CCC(N)=O)NC(=O)[C@@H](NC(=O)[C@H](C)NC(=O)[C@@H]1CSSC[C@H](NC(=O)[C@@H](N)CCCCNC(=O)CC[C@H](NC(=O)CCCCCCCCCCCCCCCCCCC(=O)O)C(=O)O)C(=O)N[C@@H](CC(N)=O)C(=O)N[C@@H]([C@@H](C)O)C(=O)N[C@@H](C)C(=O)N[C@@H]([C@@H](C)O)C(=O)N1)[C@@H](C)O)C(=O)N1CCC[C@H]1C(=O)N[C@@H](CO)C(=O)N[C@@H](CO)C(=O)N[C@H](C(=O)N[C@@H](CC(N)=O)C(=O)N[C@H](C(=O)NCC(=O)N1CCC[C@H]1C(=O)N[C@@H](CC(N)=O)C(=O)N[C@H](C(=O)N[C@@H](Cc1ccc(O)cc1)C(N)=O)[C@@H](C)O)C(C)C)[C@@H](C)O
notes: also called compound 94
B6: N^ε1-[(4S)-4-carboxy-4-(19-carboxynonadecanoylamino)butanoyl]-[Glu14,Arg17,Pro21,Pro27,Arg34,Glu35]-h-amylin (peptide)
peptide: K([γGlu-C20 diacid])CNTATCATQRLAEFLRHSSPNFGAIPSSTNVGRETY-NH2
modifications: disulfide 2-7; N-terminus assumed
SMILES: CC[C@H](C)[C@H](NC(=O)[C@H](C)NC(=O)CNC(=O)[C@H](Cc1ccccc1)NC(=O)[C@H](CC(N)=O)NC(=O)[C@@H]1CCCN1C(=O)[C@H](CO)NC(=O)[C@H](CO)NC(=O)[C@H](Cc1c[nH]cn1)NC(=O)[C@H](CCCNC(=N)N)NC(=O)[C@H](CC(C)C)NC(=O)[C@H](Cc1ccccc1)NC(=O)[C@H](CCC(=O)O)NC(=O)[C@H](C)NC(=O)[C@H](CC(C)C)NC(=O)[C@H](CCCNC(=N)N)NC(=O)[C@H](CCC(N)=O)NC(=O)[C@@H](NC(=O)[C@H](C)NC(=O)[C@@H]1CSSC[C@H](NC(=O)[C@@H](N)CCCCNC(=O)CC[C@H](NC(=O)CCCCCCCCCCCCCCCCCCC(=O)O)C(=O)O)C(=O)N[C@@H](CC(N)=O)C(=O)N[C@@H]([C@@H](C)O)C(=O)N[C@@H](C)C(=O)N[C@@H]([C@@H](C)O)C(=O)N1)[C@@H](C)O)C(=O)N1CCC[C@H]1C(=O)N[C@@H](CO)C(=O)N[C@@H](CO)C(=O)N[C@H](C(=O)N[C@@H](CC(N)=O)C(=O)N[C@H](C(=O)NCC(=O)N[C@@H](CCCNC(=N)N)C(=O)N[C@@H](CCC(=O)O)C(=O)N[C@H](C(=O)N[C@@H](Cc1ccc(O)cc1)C(N)=O)[C@@H](C)O)C(C)C)[C@@H](C)O

The binders below were run against T1, human amylin 3(a) receptor (human …) (assay: cell-based or functional assay).

Binder | hAmylin-R funct. EC50
B1 | 0.096 nM
B2 | 0.118 nM
B3 | 0.161 nM
B4 | 0.405 nM
B5 | 0.07 nM
B6 | 0.421 nM

Each binder was assayed against T2, human calcitonin receptor (assay: cell-based or functional assay).

Binder | Ratio hCT/hAmylin funct. | hCTR funct. EC50
B1 | 60.9 | 5.85 nM
B2 | 9.7 | 1.15 nM
B3 | 24.5 | 3.94 nM
B4 | 41.6 | 16.8 nM
B5 | 4.5 | 0.316 nM
B6 | 6.5 | 2.75 nM

From patent US20140087995A1 (published 2014)
